This is an account of results in publication PMC6687101.

The assay has as its target HBV envelope proteins (HBs; L, M and S forms) on HBV virions and subviral particles (hepatitis B virus) (UniProt P03138). Briefly: co-IP; 50 µg apoE mAb23 or anti-HBs coupled to protein G agarose, mixed with 10 µL CsCl-purified HBV (fraction 7) at 4 °C overnight; HBcAg detected by WB and HBV DNA by qPCR (input = 100%); normal mouse IgG as control.

The substance “HBV core protein (from UniProt P03146 1-183) (natural protein)” showed a percent of HBV precipitated through HBs (HBV DNA by qPCR) of more than 95%.
